We go through two molecules from publication PMC8262884.

The target of experiment [1] is native phosphoenolpyruvate carboxykinase (PEPCK) (Trypanosoma brucei (endogenous in EATRO1125.T7T procyclic cells)).
The target in experiment [2] is TY-tagged phosphoenolpyruvate carboxykinase (TY-PEPCK) (Trypanosoma brucei). In words: proximity ligation; Duolink In Situ Red mouse/rabbit kit on PFA-fixed, Triton X-100-permeabilized Δpepck/TY-PEPCK/UGP-MYC.i procyclic cells; rabbit anti-MYC and mouse anti-TY1; cell lines with only one tagged protein as negative controls.

B1: TY-UGP_(1-485) (enzyme)
chain: MPLNPPSAFSGAALACLEKMQASGVEEKCIHIFLIQHALVRKGETGYIPEKSISPVESLPFLQGIETKGENTALLRQAVVLKLNGGLGTGMGLNGPKSLLQVKNGQTFLDFTALQLEHFRQVRNCNVPFMLMNSFSTSGETKNFLRKYPTLYEVFDSDIELMQNRVPKIRQDNFFPVTYEADPTCEWVPPGHGDVYTVLYSSGKLDYLLGKGYRYMFISNGDNLGATLDVRLLDYMHEKQLGFLMEVCRRTESDKKGGHLAYKDVIDETTGQTRRRFVLRESAQCPKEDEDSFQNIAKHCFFNTNNIWINLMELKKMMDEQLGVLRLPVMRNPKTVNPQDSQSTKVYQLEVAMGAAISLFDRSEAVVVPRERFAPVKTCSDLLALRSDAYQVTEDQRLVLCEERNGKPPAIDLDGEHYKMIDGFEKLVKGGVPSLRQCTSLTVRGLVEFGADVSVRGNVVIKNLKEEPLIIGSGRVLDNEVVVVE
B1: the glycosomal import of the tagged UGP (Western blot of glycosomal and cytosolic fractions), against native UGP in parental cells in experiment [1] amounted to 9 fold.

B2: MYC-tagged UDP-glucose pyrophosphorylase (UGP-MYC) (enzyme)
chain: B1 chain
Molecule B2 registered a percent of PLA-positive cells in experiment [2] of 62%.
